Consider seven molecules from article PMC4505582 (The Journal of Biological Chemistry, 2015).

To fix the notation:
T1: F-ATPase subunit b (bovine, UniProt P13619 43-256)
T1 construct: ATP synthase subunit b, mitochondrial, bovine; endogenous subunit of the peripheral stalk of the purified F-ATPase; source: purified from bovine mitochondrial membranes as part of the F-ATPase complex
T1 sequence (looked up): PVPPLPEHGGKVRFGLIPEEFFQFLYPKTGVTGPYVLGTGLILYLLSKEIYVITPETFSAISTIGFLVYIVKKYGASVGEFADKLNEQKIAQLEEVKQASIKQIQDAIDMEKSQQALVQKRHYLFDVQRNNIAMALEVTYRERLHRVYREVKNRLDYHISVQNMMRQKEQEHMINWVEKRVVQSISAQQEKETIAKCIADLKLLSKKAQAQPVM

T2: F-ATPase subunit g (bovine, UniProt Q28852 1-103)
T2 construct: ATP synthase subunit g, mitochondrial, bovine; endogenous supernumerary membrane subunit of the purified F-ATPase; source: purified from bovine mitochondrial membranes as part of the F-ATPase complex
T2 sequence (looked up): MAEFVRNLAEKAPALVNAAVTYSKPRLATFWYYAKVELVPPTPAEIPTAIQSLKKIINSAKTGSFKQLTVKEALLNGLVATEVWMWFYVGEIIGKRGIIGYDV

B1: F-ATPase subunit e (natural protein, bovine, UniProt Q00361 1-71, looked up)
chain: MVPPVQVSPLIKLGRYSALFLGMAYGAKRYNYLKPRAEEERRLAAEEKKKRDEQKRIERELAEAQEDTILK
notes: ATP synthase subunit e, mitochondrial, bovine; endogenous supernumerary membrane subunit of the purified F-ATPase; source: purified from bovine mitochondrial membranes as part of the F-ATPase complex
B2: F-ATPase subunit oscp (natural protein, bovine, UniProt P13621 24-213, looked up)
chain: FAKLVRPPVQIYGIEGRYATALYSAASKQNKLEQVEKELLRVGQILKEPKMAASLLNPYVKRSVKVKSLSDMTAKEKFSPLTSNLINLLAENGRLTNTPAVISAFSTMMSVHRGEVPCTVTTASALDEATLTELKTVLKSFLSKGQVLKLEVKIDPSIMGGMIVRIGEKYVDMSAKTKIQKLSRAMREIL
notes: ATP synthase subunit O (oligomycin sensitivity conferral protein), mitochondrial, bovine; endogenous subunit of the peripheral stalk of the purified F-ATPase; source: purified from bovine mitochondrial membranes as part of the F-ATPase complex
B3: F-ATPase subunit DAPIT (diabetes-associated protein in insulin-sensitive tissues) (natural protein, bovine, UniProt Q3ZBI7 1-58, looked up)
chain: MAGPEADAQFHFTGIKKYFNSYTLTGRMNCVLATYGSIALIVLYFKLRSKKTPAVKAT
notes: DAPIT (diabetes-associated protein in insulin-sensitive tissues), bovine; endogenous supernumerary membrane subunit of the purified F-ATPase; source: purified from bovine mitochondrial membranes as part of the F-ATPase complex
B4: F-ATPase subunit ATP8 (natural protein, bovine, UniProt P03929 1-66, looked up)
chain: MPQLDTSTWLTMILSMFLTLFIIFQLKVSKHNFYHNPELTPTKMLKQNTPWETKWTKIYLPLLLPL
notes: ATP synthase protein 8 (A6L), encoded in mitochondrial DNA, bovine; endogenous membrane subunit of the purified F-ATPase; C terminus at residue 66 as printed; also called A6L; source: purified from bovine mitochondrial membranes as part of the F-ATPase complex
B5: F-ATPase subunit d (natural protein)
chain: not shown
notes: ATP synthase subunit d, mitochondrial, bovine; endogenous subunit of the peripheral stalk of the purified F-ATPase; source: purified from bovine mitochondrial membranes as part of the F-ATPase complex
B6: F-ATPase subunit F6 (natural protein, bovine, UniProt P02721 33-108, looked up)
chain: NKELDPVQKLFVDKIREYRTKRQTSGGPVDAGPEYQQDLDRELFKLKQMYGKADMNTFPNFTFEDPKFEVVEKPQS
notes: ATP synthase coupling factor 6, mitochondrial, bovine; endogenous subunit of the peripheral stalk of the purified F-ATPase; printed length 76 amino acids; source: purified from bovine mitochondrial membranes as part of the F-ATPase complex
B7: F-ATPase subunit f (natural protein, bovine, UniProt Q28851 1-88, looked up)
chain: MASVVPLKEKKLLEVKLGELPSWILMRDFTPSGIAGAFQRGYYRYYNKYVNVKKGSIAGLSMVLAAYVFLNYCRSYKELKHERLRKYH
notes: ATP synthase subunit f, mitochondrial, bovine; endogenous supernumerary membrane subunit of the purified F-ATPase; source: purified from bovine mitochondrial membranes as part of the F-ATPase complex

What all share (details): both partners purified
The target of the assay “F-ATPase subunit f” is B7. The experiment in a line: cross-linking; purified monomeric bovine F-ATPase (2 μM, 1.16 mg/ml) in detergent and phospholipids reacted with 2 mM DSS(d0/d12), pH 8.0, 2 h; tryptic digest, cation exchange fractionation, linked lysines identified by mass spectrometry.
The target in a further assay is T3, F-ATPase α-subunit (bovine, UniProt P19483 44-553).
T3 construct: ATP synthase subunit alpha, mitochondrial, bovine; endogenous subunit of the F1 domain of the purified F-ATPase (three copies in the enzyme); also called subunit α; source: purified from bovine mitochondrial membranes as part of the F-ATPase complex
T3 sequence (P19483 44-553): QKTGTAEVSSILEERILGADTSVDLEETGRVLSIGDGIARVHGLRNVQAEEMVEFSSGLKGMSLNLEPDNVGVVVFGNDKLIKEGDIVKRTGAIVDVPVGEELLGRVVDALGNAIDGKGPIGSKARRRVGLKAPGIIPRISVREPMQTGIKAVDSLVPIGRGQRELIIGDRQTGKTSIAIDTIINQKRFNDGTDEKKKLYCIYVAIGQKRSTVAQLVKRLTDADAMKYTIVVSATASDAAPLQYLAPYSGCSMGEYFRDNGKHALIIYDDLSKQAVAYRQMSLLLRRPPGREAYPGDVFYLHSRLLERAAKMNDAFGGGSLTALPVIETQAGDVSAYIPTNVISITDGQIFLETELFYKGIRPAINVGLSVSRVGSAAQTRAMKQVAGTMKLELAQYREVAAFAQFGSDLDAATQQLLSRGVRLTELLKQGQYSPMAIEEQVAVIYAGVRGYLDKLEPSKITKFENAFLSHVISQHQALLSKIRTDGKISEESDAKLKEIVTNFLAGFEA
Described as above.

The target in assay [1] is T4, F-ATPase subunit 6.8PL (6.8-kDa proteolipid) (bovine, UniProt P14790 1-60).
T4 construct: 6.8 kDa mitochondrial proteolipid, bovine; endogenous supernumerary membrane subunit of the purified F-ATPase; source: purified from bovine mitochondrial membranes as part of the F-ATPase complex
The assay is described as above.

The target in assay [2] is T1, F-ATPase subunit b. Described as above.
Assay [3] has as its target B5. The assay is described as above.
The assay “F-ATPase subunit F6” has as its target B6. Described as above.
The target of assay [4] is T1, F-ATPase subunit b. Briefly: cross-linking; purified monomeric bovine F-ATPase reacted with BS^3(d0/d12) at the same concentration and under the same conditions as DSS; tryptic digest, linked lysines identified by mass spectrometry.
The target in assay [5] is T1, F-ATPase subunit b. The experiment in a line: cross-linking; purified monomeric bovine F-ATPase (2 μM, 1.16 mg/ml) in detergent and phospholipids reacted with 2 mM DSS(d0/d12), pH 8.0, 2 h; tryptic digest, cation exchange fractionation, linked lysines identified by mass spectrometry. This is another data set of the same source.
Assay [6] addresses B5. Described as above. The source holds these as a separate data set.
The target in another assay is T2, F-ATPase subunit g. The experiment in a line: cross-linking; purified monomeric bovine F-ATPase reacted with BS^3(d0/d12) at the same concentration and under the same conditions as DSS; tryptic digest, linked lysines identified by mass spectrometry.

As to B1, the binding result with F-ATPase subunit f is recorded as “binds”.

With B2, the binding result with F-ATPase α-subunit is “binds”.

Consider B3, for which, in assay [1], the binding result is on record as “binds”.

On to B4, for which the binding result with F-ATPase subunit b [2], in the assay with F-ATPase subunit d [3] and with F-ATPase subunit F6 was “binds” in each case.

As for B5, in the assay with F-ATPase subunit b [4], the binding result is “binds”.

As for B6, the binding result with F-ATPase subunit b [5] and with F-ATPase subunit d [6] was “binds” in each case.

Take B7: in the assay with F-ATPase subunit g, the binding result was “binds”.
